Laboratory results as given in patent publication US20040170619, “Gene regulation” (published 2004).

B1: EPO B-A target site (dsDNA)
DNA 1: TCTGGGGTGGGGGCTGGG
DNA 2: CCCAGCCCCCACCCCAGA
B2: TNFR1-4-2 target site (dsDNA)
DNA 1: GTCGGATTGGTGGGTTGGGGGCACAAGGCA
DNA 2: TGCCTTGTGCCCCCAACCCACCAATCCGAC

Legend:
[1] = target: EPOb-a-VP64 six-zinc-finger activator (synthetic construct); assay: ELONA; binds tightly and specifically; 50 uM ZnCl2, PBS pH 7.0, salmon sperm competitor DNA; values only in figure; conditions: tags: SV40 NLS, VP64, c-myc 9E10, C-terminal HA for ELISA; label: biotin
Experimental: (§1) DNA binding reactions contain the appropriate zinc finger peptide, biotinylated binding site (10 nM) and 5 μg competitor DNA (sonicated salmon sperm DNA), in a total volume of 50 μl, which contained: 1×PBS (pH 7.0), 1.25×10⁻³ U high affinity anti-HA-Peroxidase antibody (Boehringer Mannheim), 50 μM ZnCl₂, 0.01 mg/ml BSA, and 0.5% Tween 20. Incubations are performed at room temperature for 40 minutes. Black streptavidin-coated wells are blocked with 4% marvel for 1 hour. Binding reactions are added to the streptavidin-coated wells and incubated for a further 40 minutes at room temperature. Wells are washed 5 times in 100 μl wash buffer (1×PBS (pH 7.0), 50 µM ZnCl₂, 0.01 mg/ml BSA, and 0.5% Tween 20), and finally 50 μl QuantaBlu peroxidase substrate solution (Pierce) is added to detect bound HA-tagged zinc finger peptide. ELISA signals are read in a SPECTRAmax GeminiXS spectrophotometer (Molecular Devices) and analysed using SOFTmax Pro 3.1.2 (Molecular Devices).

[2] = target: TNFR1-4-2 six-zinc-finger DNA-binding domain (synthetic construct); assay: ELONA; high affinity and specificity; 50 uM ZnCl2, PBS pH 7.0, 10 nM site, salmon sperm competitor DNA, room temperature; conditions: may carry C-terminal NLS-KOX1-c-myc in the ELISA construct; label: biotin
Experimental: as §1

Sequence of TNFR1-4-2 six-zinc-finger DNA-binding domain (synthetic construct) (chain, as listed by the source): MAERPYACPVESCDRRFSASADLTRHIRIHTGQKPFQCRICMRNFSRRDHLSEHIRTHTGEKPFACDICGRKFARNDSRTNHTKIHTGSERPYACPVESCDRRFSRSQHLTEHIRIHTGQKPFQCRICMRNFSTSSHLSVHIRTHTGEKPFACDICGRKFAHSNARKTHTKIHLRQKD

| Binder | binding result [1] | binding result [2] |
| --- | --- | --- |
| B1 | binds |  |
| B2 |  | binds |
